Results as given in PMC6416295.

How the values were obtained:
[1] = system: HlyU (Vibrio vulnificus MO6-24/O); assay: EMSA; details: 10 mM Tris-Cl pH 7.5, 50 mM KCl, 5 mM MgCl2, 5% glycerol, 0.1 ug poly(dI-dC) in 20 ul, 5 nM DNA, 25 C, 0.5 h; 6% native PAGE
[2] = system: HlyU (Vibrio vulnificus MO6-24/O); assay: EMSA; details: 10 mM Tris-Cl pH 7.5, 50 mM KCl, 5 mM MgCl2, 5% glycerol, 0.1 ug poly(dI-dC) in 20 ul, 5 nM DNA, 25 C, 0.5 h; 6% native PAGE; remark: listed apart in the source

PrtxA 264-bp
Kd [1]: 0.0252 µM | Kd [2]: 0.0548 µM
